Our source for the Ca++ response to 1 uM MCH, relative fluorescence units (FLIPR), baseline approximately 700 RFU, EC50 for MCH-mediated Ca++-mobilization (fluorometric imaging plate reader) on I3.4.2 cells and EC50 for receptor activation, Ca++-mobilization assay (FLIPR) on T42402I3.4.2 cells values is US20040259194A1.

Values joined by “and” are separate entries in the source; they are usually repeats but may differ in a detail not shown here. Identical values can stand only once.

The experiment has as its target melanin-concentrating hormone receptor 1 (MCHR1) from I3.4.2 cells (human) (UniProt Q99705). The experiment can be described thus: cell-based or functional assay.

melanin-concentrating hormone receptor 1 (MCHR1) from I3.4.2 cells (human), sequence (Q99705 whole entry): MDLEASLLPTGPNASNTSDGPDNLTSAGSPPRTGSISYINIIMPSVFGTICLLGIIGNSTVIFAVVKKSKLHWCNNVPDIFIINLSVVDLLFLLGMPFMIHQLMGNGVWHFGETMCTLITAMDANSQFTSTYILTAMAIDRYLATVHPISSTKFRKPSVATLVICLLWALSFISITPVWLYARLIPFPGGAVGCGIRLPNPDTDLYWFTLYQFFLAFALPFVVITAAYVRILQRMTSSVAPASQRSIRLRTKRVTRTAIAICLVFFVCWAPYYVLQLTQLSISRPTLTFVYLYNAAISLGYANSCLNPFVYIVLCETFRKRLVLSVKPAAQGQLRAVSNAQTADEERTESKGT

With “melanin-concentrating hormone (MCH) (from UniProt P20382 147-165) (peptide)”, the Ca++ response to 1 uM MCH, relative fluorescence units (FLIPR), baseline approximately 700 RFU is 5000 RFU and 6000 RFU; the EC50 for MCH-mediated Ca++-mobilization (fluorometric imaging plate reader) on I3.4.2 cells stood at 90 nM; the EC50 for receptor activation, Ca++-mobilization assay (FLIPR) on T42402I3.4.2 cells is 80 nM.
